The values below come from patent US20150132305A1 (ADHERON THERAPEUTICS, published 2015).

Numbering of substitutions follows the chain as printed. Names and notes keep the numbering of the source. No end group written: not given here.

B1: Cad-9 37-mer peptide linked to BSA (peptide, UniProt Q9ULB4 54-90, looked up)
peptide: GWMWNQFFLLEEYTGTDTQYVGKLHTDQDKGDGNLKY
modifications: also: linked to BSA
notes: also called Cad-9 antigen; Cad-9 peptide
B2: SDP081 humanized anti-Cad-11 EC1 antibody (Vκ2/VH3) (antibody, IgG4, V domains shown)
VH: EVQLVQSGAEVKKPGASVKISCKASGYSFTGYFMNWVRQAPGQGLEWIGRINPYTGDTFYNQKFKGRATLTVDKSTSTAYMELSSLRSEDTAVYYCGRLGSRYWYFDVWGQGTTVTVSS
VL: DVLMTQTPLSSPVTLGQPASISCRSSQSIIHSNGNTYLEWYLQKPGQSPQLLIYKVSNRFSGVPDRFSGSGSGTDFTLKISRVEAEDVGVYYCFQGSHVPWTFGQGTKLEIK
notes: humanized IgG4 (S241P), kappa
B3: SDP091 humanized anti-Cad-11 EC1 antibody (Vκ2/VH4) (antibody, IgG4, V domains shown)
VH: B2 VH with I20V, L70I
VL: B2 VL
notes: humanized IgG4 (S241P), kappa
B4: SDP141 humanized anti-Cad-11 EC1 antibody (Vκ3/VH4) (antibody, IgG4, V domains shown)
VH: B2 VH with I20V, L70I
VL: B2 VL with L3V
notes: humanized IgG4 (S241P), kappa
B5: SDP111 humanized anti-Cad-11 EC1 antibody (Vκ3/VH1) (antibody, IgG4, V domains shown)
VH: B2 VH with A9P, V11L, R38K, P41H, T76S, S84V, R87S, T91S
VL: B2 VL with L3V
notes: humanized IgG4 (S241P), kappa
B6: SDP101 humanized anti-Cad-11 EC1 antibody (Vκ2/VH5) (antibody, IgG4, V domains shown)
VH: B2 VH with I20V, A68V, L70I
VL: B2 VL
notes: humanized IgG4 (S241P), kappa
B7: SDP011 humanized anti-Cad-11 EC1 antibody (Vκ1/VH1) (antibody, IgG4, V domains shown)
VH: B2 VH with A9P, V11L, R38K, P41H, T76S, S84V, R87S, T91S
VL: B2 VL with S68T
notes: humanized IgG4 (S241P), kappa
B8: SDP131 humanized anti-Cad-11 EC1 antibody (Vκ3/VH3) (antibody, IgG4, V domains shown)
VH: B2 VH
VL: B2 VL with L3V
notes: humanized IgG4 (S241P), kappa
B9: SDP151 humanized anti-Cad-11 EC1 antibody (Vκ3/VH5) (antibody, IgG4, V domains shown)
VH: B2 VH with I20V, A68V, L70I
VL: B2 VL with L3V
notes: humanized IgG4 (S241P), kappa
B10: SDP061 humanized anti-Cad-11 EC1 antibody (Vκ2/VH1) (antibody, IgG4, V domains shown)
VH: B2 VH with A9P, V11L, R38K, P41H, T76S, S84V, R87S, T91S
VL: B2 VL
notes: humanized IgG4 (S241P), kappa
B11: SDP071 humanized anti-Cad-11 EC1 antibody (Vκ2/VH2) (antibody, IgG4, V domains shown)
VH: B2 VH with R38K
VL: B2 VL
notes: humanized IgG4 (S241P), kappa
B12: SDP121 humanized anti-Cad-11 EC1 antibody (Vκ3/VH2) (antibody, IgG4, V domains shown)
VH: B2 VH with R38K
VL: B2 VL with L3V
notes: humanized IgG4 (S241P), kappa
B13: SDP031 humanized anti-Cad-11 EC1 antibody (Vκ1/VH3) (antibody, IgG4, V domains shown)
VH: B2 VH
VL: B2 VL with S68T
notes: humanized IgG4 (S241P), kappa
B14: SDP021 humanized anti-Cad-11 EC1 antibody (Vκ1/VH2) (antibody, IgG4, V domains shown)
VH: B2 VH with R38K
VL: B2 VL with S68T
notes: humanized IgG4 (S241P), kappa
B15: SDP041 humanized anti-Cad-11 EC1 antibody (Vκ1/VH4) (antibody, IgG4, V domains shown)
VH: B2 VH with I20V, L70I
VL: B2 VL with S68T
notes: humanized IgG4 (S241P), kappa
B16: Cad-7 37-mer peptide linked to BSA (peptide, UniProt Q9ULB5 48-84, looked up)
peptide: SWVWNQFFVLEEYMGSDPLYVGKLHSDVDKGDGSIKY
modifications: also: linked to BSA
notes: also called Cad-7 antigen; Cad-7 peptide

Assay [1] has as its target T1, SDP051 humanized anti-Cad-11 EC1 antibody (Vκ1/VH5).
T1 construct: humanized IgG4 (S241P), kappa
The experiment in a line: flow cytometry blocking assay: peptide titrated with SDP 051 at 0.5 ug/ml on Cad-11 expressing 431D cells; blocked: binding of SDP051 to cell-surface Cad-11; MFI. The protocol:
Cells were the stained on ice for 45 minutes with increasing concentration of either the 37-mer Cad-11 peptide or Cad-7, Cad-8, Cad-9, Cad-18, Cad-20, or Cad-24 peptides with […] SDP051. After staining the cells were washed twice with Hanks balanced salt solution (HBSS) containing 1% fetal bovine solution (FBS), resuspended and then stained with a 100 μl of goat anti-mouse IgG-PE (100× dilution) on ice for 30′ protected from light. After staining the cells with the secondary agent, cells were washed twice with HBSS with 1% FBS, resuspended and fixed in 200 μl of 2% formaldehyde in HBSS with 1% FBS and then analyzed with a BD FACSCALIBUR™ machine.
In general terms: Flow cytometry measures light scatter and fluorescence of single cells or particles in a stream.

Assay [2] addresses T2, recombinant Cad-11 EC1 human IgG1 fusion protein (R&D Systems Cat. No. 1790-CA-050) (human, UniProt P55287 54-617, limits assumed).
T2 construct: bought; also called recombinant human Cad-11 EC1; recombinant human Cad-11 fusion protein; not shown: human IgG1 part
T2 sequence: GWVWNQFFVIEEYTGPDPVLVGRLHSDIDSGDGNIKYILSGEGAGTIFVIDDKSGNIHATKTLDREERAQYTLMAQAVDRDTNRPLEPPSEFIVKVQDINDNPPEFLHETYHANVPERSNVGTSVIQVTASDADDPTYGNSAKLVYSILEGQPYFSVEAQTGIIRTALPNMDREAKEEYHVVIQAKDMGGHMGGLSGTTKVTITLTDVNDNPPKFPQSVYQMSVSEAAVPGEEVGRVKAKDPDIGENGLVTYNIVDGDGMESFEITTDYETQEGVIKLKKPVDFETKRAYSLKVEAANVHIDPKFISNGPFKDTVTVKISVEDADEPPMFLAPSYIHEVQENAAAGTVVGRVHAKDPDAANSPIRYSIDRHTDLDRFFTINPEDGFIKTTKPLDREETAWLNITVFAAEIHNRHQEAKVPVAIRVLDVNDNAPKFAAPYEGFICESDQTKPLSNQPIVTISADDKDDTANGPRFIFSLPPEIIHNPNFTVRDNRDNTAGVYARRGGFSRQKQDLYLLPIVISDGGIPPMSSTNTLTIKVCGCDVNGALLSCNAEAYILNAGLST
The experiment in a line: competition ELISA against biotinylated SYN0012/H1M1 (competitor) on coated fusion protein; text says values are normalised to the IC50 of SYN0012. The protocol:
(§1) The binding of the purified humanized composite variant antibodies (SDP011 to SDP151) to a recombinant Cad-11 EC1 human IgG1 fusion protein was assessed in a competition binding ELISA. A dilution series from 5 μg/ml to 0.0022 μg/ml of the humanized or control (SYN0012/H1M1) antibodies was premixed with a constant concentration of biotinylated murine anti-Cad-11 antibody, SYN0012/H1M1 (0.1 μg/ml, final concentration), before incubating for 1 hour at room temperature on a NUNC-IIMMUNO™ MAXISORP™ 96 well flat bottom microtitre plate (Fisher Cat. No. DIS-971-030J) pre-coated with 0.25 μg/ml recombinant human Cad-11 EC1 (R&D Systems Cat. No. 1790-CA-050) diluted in PBS. The binding of the biotinylated mAb was detected with streptavidin-HRP (Sigma Cat. No. 55512) and tetramethylbenzidine (TMB) substrate (Invitrogen Cat. No. 00-2023).
(§2) All of the humanized anti-Cad-11 antibodies efficiently competed with SYN0012 for binding to the Cad-11 fusion protein (FIGS. 38A to C). […] The curves were used to calculate IC50 values for each antibody and these were normalized to the IC50 of SYN0012, which was included on each ELISA plate so that comparisons between plates could be made (Table 3). The expression levels of each cell line and the calculated isoelectric point (pI) of each antibody are also shown (Table 3).
The relative IC50 was calculated by dividing the value for the test antibody by that of SYN0012. Antibody expression levels given are for static cultures in T flasks. PI are calculated.
Background: ELISA stands for enzyme-linked immunosorbent assay.

Assay [3] addresses T2, recombinant Cad-11 EC1 human IgG1 …. As to the kind of experiment: competition ELISA: antibody dilution series premixed with 0.1 µg/ml biotinylated SYN0012/H1M1, plate coated with recombinant human Cad-11 EC1 fusion protein, streptavidin-HRP, OD450. Here is the method: as §1, §2
The target is the same in assay [4]. As to the kind of experiment: competition ELISA on coated recombinant human Cad-11 EC1 fusion protein against biotinylated SYN0012 (0.1 µg/ml). Here is the method:
as §1, §2

In assay [5] the target is B1. As to the kind of experiment: ELISA, BSA-coupled 37-mer cadherin peptide coated at 500 ng/ml, A450. Here is the method:
REACTI-BIND™ plates (ThermoScientific) were coated with 500 ng/ml of the BSA coupled cadherin 37-mer peptide (NE peptide) corresponding to Cadherins-7, -8, -9, -11, -18, -20, and -24 in 0.05% TWEEN® detergent (EMD, product code 9480) in PBS (pH 7.2) (Gibco(Invitrogen), #20012) at 100 μl volume/well for overnight at 4° C. The peptide containing solution was removed from the well and the plate blocked with a 2% bovine serum albumin (BSA) in PBS, 200 μl volume/well, for 2 h at 22° C. The plate was then washed twice with 200 μl/well of PBS-TWEEN® detergent 0.05% at 22° C. and blotted dry. A dilution series from 5 μg/ml to 8 ng/ml in a volume of 100 μl/well of each the humanized anti-Cad-11 antibodies were incubated in the petide coated wells and incubated at 22° C. for 1 hr. Antibody solution was removed from the wells and the plate washed twice with 200 μl/well of 0.05% TWEEN® detergent-PBS at 22° C. and blotted dry. The goat-anti mouse IgG (Pierce #31432) was added to each well to plate at a 1:1000 dilution, 100 μl/well and incubate at 22° C. for 30 min. The secondary antibody solution was removed and the plate washed twice with 200 μl/well of 0.05% TWEEN® detergent-PBS at 22° C. and blotted dry. The reaction was developed by adding 100 μl/well tetramethylbenzidine (TMB) reagent IgG (Pierce #34022, 1 step Turbo TMB-ELISA) to plate and developed at 22° C. for 5 min.

In general, IC50 refers to the midpoint of a concentration-inhibition curve.

With B1, the binding result in assay [1] is reported as “no binding (tested: about 80000 ng/ml)”. B2: the IC50 in assay [2] worked out at 0.42 µg/mL. For the molecule B3, in assay [2], the IC50 came out at 0.57 µg/mL. On to B4, for which, in assay [3], the “IC50 (read off the curve)” value was roughly 0.2 µg/mL. Further, in assay [2], the IC50 turned out to be 0.61 µg/mL. For the molecule B5, the “IC50 (read off the curve)” value in assay [3] is roughly 0.2 µg/mL. In addition, the IC50 in assay [2] turned out to be 0.68 µg/mL.

As for B6, in assay [2], the IC50 was determined as 0.53 µg/mL. With B7, in assay [2], the IC50 turned out to be 0.91 µg/mL. In assay [4], the “IC50 (read off the curve)” value is roughly 0.2 µg/mL. With B8, in assay [3], the “IC50 (read off the curve)” value was roughly 0.2 µg/mL. Besides, the IC50 in assay [2] was determined as 0.55 µg/mL. In the same order, the values of B9 are roughly 0.2 µg/mL and 0.72 µg/mL. As to B10, in assay [5], the binding result is “no binding (tested: 5000 ng/ml)”. For the same molecule, the IC50 in assay [2] was 0.47 µg/mL. As for B11, in assay [5], the binding result is “no binding (tested: 5000 ng/ml)”. Further, the IC50 in assay [2] was determined as 0.33 µg/mL. As for B12, in assay [3], the “IC50 (read off the curve)” value is roughly 0.2 µg/mL. The IC50 in assay [2] worked out at 0.52 µg/mL.

In the case of B13, in assay [2], the IC50 amounted to 0.84 µg/mL. In assay [4], the “IC50 (read off the curve)” value is roughly 0.2 µg/mL. As to B14, in assay [2], the IC50 stood at 0.67 µg/mL. Further, the “IC50 (read off the curve)” value in assay [4] was roughly 0.1 µg/mL.

As for B15, in assay [2], the IC50 was 0.65 µg/mL. Also, the “IC50 (read off the curve)” value in assay [4] was roughly 0.1 µg/mL. Take B16: the binding result in assay [1] was “no binding (tested: 3000 ng/ml)”.
